Measurements from patent US20210088528A1 (published 2021).

How the values were obtained:
human PD-L2-His6 [1] = molecular target: T1, human PD-L2-His6 (human, UniProt Q9BQ51 20-220); experiment: BLI (Octet RED96), PD-1-Fc on AHC biosensor, PD-L2-His6 in solution
T1 construct: extracellular domain; also called hPD-L2; B7-DC; not shown: His6 tag (by the name PD-L2-His6)
T1 sequence (looked up): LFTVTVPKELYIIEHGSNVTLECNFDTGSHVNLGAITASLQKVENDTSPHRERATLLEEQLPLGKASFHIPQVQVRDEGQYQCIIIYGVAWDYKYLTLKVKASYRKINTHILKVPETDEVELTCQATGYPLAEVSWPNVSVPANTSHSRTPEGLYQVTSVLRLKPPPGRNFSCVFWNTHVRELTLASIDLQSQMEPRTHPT
Method: (§1) BLI was performed on an Octet RED96® system at 30° C. in a buffer of 150 mM NaCl, 20 mM HEPES:NaOH pH 7.4, 0.1% BSA and 0.05% Tween 20. The human PD-1-Fc proteins were loaded onto anti-human IgG Fc capture (AHC) biosensors, associated in defined concentrations of human PD-L2-His6 or PD-L1-His6 proteins, and then dissociated in buffer.
(§2) Using bio-layer interferometry (BLI), the binding of PD-L2 to wild-type PD-1 and the variants was compared (data not shown). The binding of sensor-loaded PD-1 and the loop variants to 190 nM PD-L2 and 1.1 μM PD-L1 was measured using biolayer interferometry. Corresponding PD-1-Fc proteins were loaded on anti-human IgG Fc capture (AHC) biosensors. Association was monitored for 2 min and dissociation for 2 min. Fitting of binding curves was performed in Graphpad Prism 8 software using built-in equations of “Receptor binding—kinetics” models. Means and standard deviations were calculated from 3-4 independent experiments. […] Fitting of binding curves was performed in Graphpad Prism 8 using built-in equations of “Receptor binding—kinetics” models. Means and standard deviations were calculated from 3-4 independent experiments. […] Kinetic measurements of binding of the ligands by PD-1 with BLI also permitted the determination of association constants (kₒₙ).

human PD-L1-His6 [2] = molecular target: T2, human PD-L1-His6 (human, UniProt Q9NZQ7 19-238); experiment: BLI (Octet RED96), PD-1-Fc on AHC biosensor, PD-L1-His6 in solution
T2 construct: extracellular domain; also called hPD-L1; B7-H1; not shown: His6 tag (by the name PD-L1-His6)
Method: as §1, §2

human PD-L2-His6 [3] = molecular target: T1, human PD-L2-His6; experiment: BLI, PD-1-Fc on AHC biosensor
Method: as §1, §2

human PD-L1-His6 [4] = molecular target: T2, human PD-L1-His6; experiment: BLI, PD-1-Fc on AHC biosensor
Method: as §1, §2

T2 sequence (Q9NZQ7 19-238): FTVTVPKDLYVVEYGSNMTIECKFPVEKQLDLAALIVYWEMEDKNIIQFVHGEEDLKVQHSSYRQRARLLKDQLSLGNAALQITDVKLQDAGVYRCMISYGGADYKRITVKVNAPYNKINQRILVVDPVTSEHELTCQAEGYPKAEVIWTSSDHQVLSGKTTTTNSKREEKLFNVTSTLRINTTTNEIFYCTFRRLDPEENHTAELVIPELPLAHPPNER

Kd (human PD-L2-His6 [1]): 2.6 nM | koff (human PD-L2-His6 [1]): 0.0014 s⁻¹ | kon (human PD-L2-His6 [1]): 580000 M⁻¹ s⁻¹ | Kd (human PD-L1-His6 [2]): 72 nM | koff (human PD-L1-His6 [2]): 0.036 s⁻¹ | kon (human PD-L1-His6 [2]): 520000 M⁻¹ s⁻¹ | fold increase in binding affinity against wild-type PD-1 (human PD-L2-His6 [3]): ~200 fold | fold increase of kon against wild-type PD-1 (human PD-L2-His6 [3]): 3 fold | fold increase of kon against wild-type PD-1 (human PD-L1-His6 [4]): 14 fold
B1: human PD-1-Fc N74G T76P A132V (Fc fusion)
chain: PGWFLDSPDRPWNPPTFSPALLVVTEGDNATFTCSFSNTSESFVLNWYRMSPSGQPDKLAAFPEDRSQPGQDCRFRVTQLPNGRDFHMSVVRARRNDSGTYLCGAISLAPKVQIKESLRAELRVTERRAE
notes: also called PD-1 triple mutant; triple-mutant; not shown: Fc portion
